Values joined by “and” are separate entries in the source; they are usually repeats but may differ in a detail not shown here. Equal entries are not always repeated.
What was measured:
[1] = molecular target: SARS-CoV-2 spike (S) protein, Omicron (SARS-CoV-2 Omicron variant) (UniProt P0DTC2); experiment: electrochemical aptasensor (DPV); conditions: 5' di-DTPA (2 dithiol phosphoramidite groups), on gold with PEG 2000 backfill
[2] = molecular target: SARS-CoV-2 spike (S) protein, alpha (SARS-CoV-2 alpha variant) (UniProt P0DTC2); experiment: electrochemical aptasensor (DPV); conditions: 5' di-DTPA (2 dithiol phosphoramidite groups), on gold with PEG 2000 backfill
[3] = molecular target: SARS-CoV-2 spike (S) protein, beta (SARS-CoV-2 beta variant) (UniProt P0DTC2); experiment: electrochemical aptasensor (DPV); conditions: 5' di-DTPA (2 dithiol phosphoramidite groups), on gold with PEG 2000 backfill
[4] = molecular target: SARS-CoV-2 spike (S) protein, Omicron (SARS-CoV-2 Omicron variant) (UniProt P0DTC2); experiment: SPR; conditions: 5' di-DTPA (2 dithiol phosphoramidite) in printed sequence; not stated whether present in SPR analyte

Sequence	binding signal [1]	binding signal [2]	binding signal [3]	Kd [4]
GGGGGCGTCAAGCGGGGTCACATCGGAGTAGGGAATCTTG [C9t di-DTPA (surface-immobilized)]	1240 dI/I0	17.9 dI/I0 and 31.9 dI/I0	27.1 dI/I0 and 43.6 dI/I0	–
GGGGGCGTCAAGCGGGGTCACATCGGAGTAGGGAATCTTG [C9t (SPR)]	–	–	–	14.6 nM

Reference: publication PMC11763500
